The target of the experiment is T1, KDR (full length, on cells) (human, UniProt P35968 20-1356).
T1 construct: whole, on cells; also called VEGFR2; kinase domain receptor
Briefly: radioligand binding on HUVEC; 125I-KDR (Ig4-7) displaced by unlabeled KDR (Ig4-7). As for the experimental part: ¹²⁵I-KDR (Ig4-7) (100,000 cpm=<1 ng) was incubated with HUVEC.
Total binding of KDR (Ig4-7) was also compared between HUVEC and two human breast cancer cell lines that were reported to have KDR expression (T47-D and MCF-7 cell lines) (FIG. 7). Specific binding of KDR (Ig4-7) was approximately 88%.

By EC50 is commonly meant the concentration giving half of the maximal effect. Higher therefore signals a need for much substance.

T1 sequence (P35968 20-1356): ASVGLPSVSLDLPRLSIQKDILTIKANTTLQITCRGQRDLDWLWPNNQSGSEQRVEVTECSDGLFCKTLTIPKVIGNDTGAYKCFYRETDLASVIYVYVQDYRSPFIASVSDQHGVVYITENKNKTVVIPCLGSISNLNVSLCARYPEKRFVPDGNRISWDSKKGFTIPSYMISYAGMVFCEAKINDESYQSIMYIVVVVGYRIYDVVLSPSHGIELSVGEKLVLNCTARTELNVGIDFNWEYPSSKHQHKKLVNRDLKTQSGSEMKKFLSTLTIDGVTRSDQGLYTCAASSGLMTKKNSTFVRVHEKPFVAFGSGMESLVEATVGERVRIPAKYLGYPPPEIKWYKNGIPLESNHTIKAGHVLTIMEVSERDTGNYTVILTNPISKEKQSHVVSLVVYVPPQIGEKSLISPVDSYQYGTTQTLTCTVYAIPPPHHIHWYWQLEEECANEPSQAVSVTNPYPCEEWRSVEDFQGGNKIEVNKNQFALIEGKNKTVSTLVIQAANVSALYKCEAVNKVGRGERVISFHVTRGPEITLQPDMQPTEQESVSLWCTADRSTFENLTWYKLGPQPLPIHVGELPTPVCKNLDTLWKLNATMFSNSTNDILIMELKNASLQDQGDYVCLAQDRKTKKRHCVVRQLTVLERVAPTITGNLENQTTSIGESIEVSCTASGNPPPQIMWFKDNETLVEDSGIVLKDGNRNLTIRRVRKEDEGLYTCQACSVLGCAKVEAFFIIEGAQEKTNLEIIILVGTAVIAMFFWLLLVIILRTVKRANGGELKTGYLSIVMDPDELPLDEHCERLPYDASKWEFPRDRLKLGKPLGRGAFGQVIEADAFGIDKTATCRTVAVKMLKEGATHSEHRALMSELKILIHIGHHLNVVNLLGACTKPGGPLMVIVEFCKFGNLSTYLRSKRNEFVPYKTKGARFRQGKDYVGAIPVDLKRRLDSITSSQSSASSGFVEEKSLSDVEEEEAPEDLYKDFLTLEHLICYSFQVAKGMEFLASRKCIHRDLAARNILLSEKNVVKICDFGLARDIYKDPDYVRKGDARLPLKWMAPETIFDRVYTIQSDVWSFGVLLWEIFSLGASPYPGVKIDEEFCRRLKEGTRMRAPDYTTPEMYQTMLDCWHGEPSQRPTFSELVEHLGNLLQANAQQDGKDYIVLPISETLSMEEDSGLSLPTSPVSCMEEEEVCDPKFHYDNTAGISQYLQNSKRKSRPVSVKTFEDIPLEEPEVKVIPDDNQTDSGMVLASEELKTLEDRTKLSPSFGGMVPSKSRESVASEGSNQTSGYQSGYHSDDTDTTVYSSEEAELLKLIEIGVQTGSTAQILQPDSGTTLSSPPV

B1: KDR (Ig4-7) (receptor)
chain: HMFVAFGSGMESLVEATVGERVRIPAKYLGYPPPEIKWYKNGIPLESNHTIKAGHVLTIMEVSERDTGNYTVILTNPISKEKQSHVVSLVVYVPPQIGEKSLISPVDSYQYGTTQTLTCTVYAIPPPHHIHWYWQLEEECANEPSQAVSVTNPYPCEEWRSVEDFQGGNKIEVNKNQFALIEGKNKTVSTLVIQAANVSALYKCEAVNKVGRGERVISFHVTRGPEITLQPDMQPTEQESVSLWCTADRSTFENLTWYKLGPQPLPIHVGELPTPVCKNLDTLWKLNATMFSNSTNDILIMELKNASLQDQGDYVCLAQDRKTKKRHCVVRQLTVLERVAPTITGNLENQTTSIGESIEVSCTASGNPPPQIMWFKDNETLVEDSGIVLKDGNRNLTIRRVRKEDEGLYTCQACSVLGCAKVEAFFIIEGAQEK
modifications: 125I-labeled as tracer (labelled residues not stated); unlabeled as competitor
notes: also called 125I-KDR (Ig4-7); 125I-labeled KDR (Ig4-7)
For the molecule B1, the EC50 is approximately 10 µg/mL.

The values are drawn from patent publication US20050196396A1 (GREENVILLE HOSPITAL SYSTEM, published 2005).
